± gives the uncertainty stated by the source.
Test: self-splicing fitness, log relative to wild type (ln ratio); higher = more splicing; Tetrahymena group I intron in knt gene, E. coli kanamycin selection, DiMSum; sequences stand for … in CUCUCU…GGAGGGAAAAGUUAUCAGGCAUGCACCUGGUAGCUAGUCUUUAAACCAAUAGAUUGCAUCGGUUUAAAAGGCAAGACCGUCAAAUUGCGGGAAAGGGGUCAACAGCCGUUCAGUACCAAGUCUCAGGGGAAACUUUGAGAUGGCCUUGCAAAGGGUAUGGUAAUAAGCUGACGGACAUGGUCCUAACCACGCAGCCAAGUCCUAAGUCAACAGAUCUUCUGUUGAUAUGGAUGCAGUUCACAGACUAAAUGUCGGUCGGGGAAGAUGUAUUCUUCUCAUAAGAUAUAGUCGGACCUCUCCUUAAUGGGAGCUAGCGGAUGAAGUGAUGCAACACUGGAGCCGCUGGGAACUAAUUUGUAUGCGAAAGUAUAUUGAUUAGUUUUGGAGUACUCGUGGUCG
In short: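 Six replicate transformations of E. coli BL21(DE3) with a pET-22b(+) library were grown overnight at 37°C or 30°C. The library randomised all eight P1ex-region intron nucleotides, the intron lying in the knt kanamycin-resistance gene, and plates were LB agar with or without 25 μg/mL kanamycin plus 100 μg/mL carbenicillin, 50 μM IPTG and 0.2% rhamnose. Pooled colonies were amplicon-sequenced on an Illumina HiSeq 2500, and fitness is the DiMSum error-weighted combination of wild-type-normalised replicate fold changes, kanamycin versus none.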

Sequence | self-splicing fitness (ln) (30 °C) | self-splicing fitness (ln) (37 °C)
GUAGAGCAAUAUUACGAGCG | -0.682 ± 0.17 | -0.875 ± 0.21
AUUUAGCAAUAUUACGGAGC | -3.49 ± 0.45 | –
GUGCAGCAAUAUUACGAUGA | -0.903 ± 0.14 | -0.772 ± 0.14
CGUCAGCAAUAUUACGUCCU | -1.88 ± 0.081 | -1.27 ± 0.098
UAGAAGCAAUAUUACGCGCC | -3.18 ± 0.24 | -0.65 ± 0.13
UAAAAGCAAUAUUACGGCCU | -0.961 ± 0.1 | -0.4 ± 0.12
ACACAGCAAUAUUACGCAGA | -2.48 ± 0.16 | -1.75 ± 0.12
CCUAAGCAAUAUUACGCGAC | -2.41 ± 0.3 | -3.61 ± 0.39
UUUCAGCAAUAUUACGGACA | -0.569 ± 0.09 | -0.204 ± 0.1
UUUCAGCAAUAUUACGGUCU | -1.45 ± 0.086 | -0.667 ± 0.087
GACUAGCAAUAUUACGAUUU | 0.261 ± 0.061 | 0.116 ± 0.077
GUAGAGCAAUAUUACGGCGC | -0.386 ± 0.18 | -0.378 ± 0.22
CCGCAGCAAUAUUACGGAAA | -3.75 ± 0.3 | -3.29 ± 0.43
UUUCAGCAAUAUUACGCGAA | -2.03 ± 0.14 | -1.21 ± 0.14
AGGUAGCAAUAUUACGGAGU | -3.487 ± 0.021 | -1.72 ± 0.034
UUCCAGCAAUAUUACGGUCC | -1.79 ± 0.15 | -2.18 ± 0.17
CGCGAGCAAUAUUACGGCGU | -4.64 ± 0.34 | -2.9 ± 0.29
GGAGAGCAAUAUUACGCAUG | – | -0.0425 ± 0.28
GAGAAGCAAUAUUACGUAGA | -2 ± 0.14 | -0.626 ± 0.14
CGACAGCAAUAUUACGAUGC | -3.57 ± 0.17 | -1.92 ± 0.18
UGUCAGCAAUAUUACGGAAA | -1.11 ± 0.088 | -0.145 ± 0.086

Sequence | self-splicing fitness (ln) (30 °C) | self-splicing fitness (ln) (37 °C)
UUCAAGCAAUAUUACGGUUA | -0.0762 ± 0.097 | 0.272 ± 0.086
AGAAAGCAAUAUUACGCCCA | 0.247 ± 0.12 | 0.167 ± 0.2
GUGUAGCAAUAUUACGGAGA | – | -2.36 ± 0.45
CAACAGCAAUAUUACGAGAG | -3.41 ± 0.13 | -1.91 ± 0.11
CCCCAGCAAUAUUACGCUAC | -2.29 ± 0.17 | -2.05 ± 0.22
AGUAAGCAAUAUUACGCUGG | -3.89 ± 0.23 | -2.39 ± 0.22
CACGAGCAAUAUUACGUGCG | -3.73 ± 0.19 | -2.09 ± 0.15
UGGUAGCAAUAUUACGGGGC | – | -2.37 ± 0.38
AAUCAGCAAUAUUACGGUAG | -1.83 ± 0.092 | -0.774 ± 0.097
ACCUAGCAAUAUUACGGUUU | -1.85 ± 0.065 | -0.482 ± 0.087
UUUUAGCAAUAUUACGUGGA | -2.5 ± 0.18 | -0.992 ± 0.11
UAAAAGCAAUAUUACGAGUU | -2.99 ± 0.16 | -1.91 ± 0.14
ACACAGCAAUAUUACGGUUG | -1.37 ± 0.066 | -1.31 ± 0.11
CGAGAGCAAUAUUACGUCCU | -2.98 ± 0.39 | –
AGAAAGCAAUAUUACGAAAA | -1.74 ± 0.13 | -0.577 ± 0.15
GACUAGCAAUAUUACGGGGC | -4.11 ± 0.23 | -1.21 ± 0.13
GAUGAGCAAUAUUACGUGGC | -3.24 ± 0.22 | -2.59 ± 0.26
GGUUAGCAAUAUUACGGCGC | 0.645 ± 0.28 | -0.634 ± 0.25
AAUAAGCAAUAUUACGGAGU | -3.06 ± 0.25 | -2.13 ± 0.32
AAUAAGCAAUAUUACGUCCA | -0.808 ± 0.13 | -0.899 ± 0.19
CAGCAGCAAUAUUACGGCGC | -2.93 ± 0.35 | -1.51 ± 0.2

Sequence | self-splicing fitness (ln) (30 °C) | self-splicing fitness (ln) (37 °C)
GGUGAGCAAUAUUACGUUGC | -3.27 ± 0.35 | –
CGUUAGCAAUAUUACGUGCC | -2.8 ± 0.31 | -1.59 ± 0.29
GAUAAGCAAUAUUACGGUUU | -1.22 ± 0.056 | -0.908 ± 0.069
AGUAAGCAAUAUUACGUGCG | -1.27 ± 0.088 | -0.396 ± 0.097
ACUUAGCAAUAUUACGCGUC | -3.62 ± 0.25 | -1.83 ± 0.26
CCUGAGCAAUAUUACGCUUG | – | -1.23 ± 0.28
UUUUAGCAAUAUUACGAGUA | -1.55 ± 0.27 | -0.821 ± 0.29
UCGGAGCAAUAUUACGAAAC | -2.87 ± 0.28 | –
UGCUAGCAAUAUUACGGACA | -0.668 ± 0.098 | 0.41 ± 0.12
GCUUAGCAAUAUUACGAGAC | -2.64 ± 0.22 | -1.54 ± 0.18
AACUAGCAAUAUUACGCUGC | -2.59 ± 0.14 | -2.29 ± 0.18
UACCAGCAAUAUUACGGCGC | -1.32 ± 0.073 | -0.174 ± 0.097
GAGUAGCAAUAUUACGGCUU | -2.2 ± 0.12 | -1.78 ± 0.15
UUUAAGCAAUAUUACGAUCU | -1.05 ± 0.1 | -0.724 ± 0.13
CUAGAGCAAUAUUACGUUGA | -4.21 ± 0.34 | -3.11 ± 0.38
UUUGAGCAAUAUUACGUCCA | – | -0.659 ± 0.37
AUACAGCAAUAUUACGACAC | -0.517 ± 0.11 | -1.31 ± 0.13
CUCCAGCAAUAUUACGACAG | -1.4 ± 0.14 | -0.3 ± 0.14
CGCUAGCAAUAUUACGUCGG | -1.6 ± 0.075 | -0.631 ± 0.12
UGUUAGCAAUAUUACGCCUC | – | -0.642 ± 0.41
GGUGAGCAAUAUUACGUCCC | -2.23 ± 0.39 | –

Sequence | self-splicing fitness (ln) (30 °C) | self-splicing fitness (ln) (37 °C)
CAAAAGCAAUAUUACGUUUA | -2.19 ± 0.13 | -1.3 ± 0.13
UUCCAGCAAUAUUACGCAUU | -3.09 ± 0.17 | -0.682 ± 0.11
UGGCAGCAAUAUUACGGGAG | -3.13 ± 0.21 | -1.15 ± 0.14
ACGCAGCAAUAUUACGACUG | -2.72 ± 0.14 | -2.02 ± 0.2
CGUCAGCAAUAUUACGAAAU | -3.61 ± 0.23 | -2.6 ± 0.22
AACUAGCAAUAUUACGGCUC | -0.662 ± 0.1 | -0.155 ± 0.11
CGCGAGCAAUAUUACGAGAA | – | -2.08 ± 0.34
AAUCAGCAAUAUUACGUUCC | -2.26 ± 0.24 | -0.62 ± 0.22
CACUAGCAAUAUUACGGAGG | -2.39 ± 0.1 | -0.627 ± 0.1
CUUGAGCAAUAUUACGAGAA | -2.73 ± 0.4 | –
GUUCAGCAAUAUUACGUUCU | -0.734 ± 0.073 | -0.74 ± 0.087
CGUUAGCAAUAUUACGCUUG | -1.71 ± 0.12 | -1.26 ± 0.15
AGCGAGCAAUAUUACGGCAU | -1.45 ± 0.12 | -0.286 ± 0.14
GAAGAGCAAUAUUACGUGAG | -2.97 ± 0.19 | -1.11 ± 0.22
AUUGAGCAAUAUUACGUGGG | – | -1.57 ± 0.19
UGCUAGCAAUAUUACGCCUA | -0.454 ± 0.15 | -0.0492 ± 0.15
UAGUAGCAAUAUUACGAGGU | -2.28 ± 0.36 | –
CGAGAGCAAUAUUACGUUAG | -4.23 ± 0.36 | -2.24 ± 0.29

— the supplement of paper PMC7877785
